Data published in PMC9723941.

Target: GFPuv (heat-aggregated)
Assay: BLI; aggregated GFPuv as the sensor-bound substrate; Ssa1 and Ydj1 in solution; As(III) at the aggregation step (Fig. S3A)

Chain of Ydj1 (P25491 whole entry): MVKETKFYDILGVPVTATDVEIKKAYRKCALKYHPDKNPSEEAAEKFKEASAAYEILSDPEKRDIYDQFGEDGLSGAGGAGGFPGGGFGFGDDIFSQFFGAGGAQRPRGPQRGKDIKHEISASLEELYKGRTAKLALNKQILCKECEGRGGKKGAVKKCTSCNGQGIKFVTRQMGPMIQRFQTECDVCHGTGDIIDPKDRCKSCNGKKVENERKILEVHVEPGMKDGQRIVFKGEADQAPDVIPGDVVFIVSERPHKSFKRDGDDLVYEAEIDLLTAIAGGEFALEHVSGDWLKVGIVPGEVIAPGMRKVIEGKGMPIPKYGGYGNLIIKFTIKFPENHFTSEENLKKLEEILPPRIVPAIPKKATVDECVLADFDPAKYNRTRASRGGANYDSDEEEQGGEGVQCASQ
Chain of Ssa1 (P10591 whole entry): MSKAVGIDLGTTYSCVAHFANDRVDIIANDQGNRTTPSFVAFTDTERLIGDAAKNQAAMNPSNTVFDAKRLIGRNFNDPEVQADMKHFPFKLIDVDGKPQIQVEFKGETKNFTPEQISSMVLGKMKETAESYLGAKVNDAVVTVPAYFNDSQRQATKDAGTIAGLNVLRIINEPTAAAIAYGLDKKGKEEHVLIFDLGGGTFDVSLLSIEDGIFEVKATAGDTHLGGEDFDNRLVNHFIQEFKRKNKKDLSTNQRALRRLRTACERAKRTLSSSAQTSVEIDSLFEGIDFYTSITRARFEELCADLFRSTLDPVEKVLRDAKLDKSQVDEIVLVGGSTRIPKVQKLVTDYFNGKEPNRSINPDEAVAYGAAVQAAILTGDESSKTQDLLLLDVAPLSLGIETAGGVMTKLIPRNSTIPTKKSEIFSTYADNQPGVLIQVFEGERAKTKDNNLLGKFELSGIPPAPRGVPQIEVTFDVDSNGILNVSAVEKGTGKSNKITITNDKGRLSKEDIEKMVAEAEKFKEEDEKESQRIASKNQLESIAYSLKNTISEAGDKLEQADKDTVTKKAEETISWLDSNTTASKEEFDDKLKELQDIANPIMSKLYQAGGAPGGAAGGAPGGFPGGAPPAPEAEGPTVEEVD

“Ssa1 (from UniProt P10591 1-642) (natural protein)” gave a reduction of binding to aggregates generated in the presence of 1 mM As(III), against aggregates generated without As(III) of 30%.
With “Ydj1 (from UniProt P25491 1-409) (natural protein)” the reduction of binding to aggregates generated in the presence of 1 mM As(III), against aggregates generated without As(III) was 30%.
